PMC9428403
Several values for one entry are separate records, joined by “and”; a condition that tells them apart may be missing. Equal values may be shown once.

Tests used:
[1] = molecular target: PKM2 (endogenous, RAW264.7 macrophages) (mouse (endogenous in RAW264.7)) (UniProt P52480); assay: cross-linking; RAW264.7 cells pre-treated 1 h with Shikonin (0.5, 1, 2 μM) or not, challenged with LPS (250 ng/ml) + IFN-γ (100 ng/ml) for 24 h; cells cross-linked with disuccinimidyl suberate (500 nM as printed) 30 min at room temperature, quenched with Tris-HCl pH 7.5; lysates analysed by western blot for PKM2
[2] = molecular target: mouse PKM2 (AA 1-531), recombinant (mouse) (UniProt P52480); assay: SEC; Superdex 200 increase 10/300 GL, 150 mM NaCl, 20 mM Tris-HCl; purified PKM2 incubated with or without Shikonin; dimer and tetramer mixture eluted at 13 ml

Sequence of PKM2 (endogenous, RAW264.7 macrophages), P52480 1-531 (enzyme; other documents disagree on this pair) (P52480 whole entry): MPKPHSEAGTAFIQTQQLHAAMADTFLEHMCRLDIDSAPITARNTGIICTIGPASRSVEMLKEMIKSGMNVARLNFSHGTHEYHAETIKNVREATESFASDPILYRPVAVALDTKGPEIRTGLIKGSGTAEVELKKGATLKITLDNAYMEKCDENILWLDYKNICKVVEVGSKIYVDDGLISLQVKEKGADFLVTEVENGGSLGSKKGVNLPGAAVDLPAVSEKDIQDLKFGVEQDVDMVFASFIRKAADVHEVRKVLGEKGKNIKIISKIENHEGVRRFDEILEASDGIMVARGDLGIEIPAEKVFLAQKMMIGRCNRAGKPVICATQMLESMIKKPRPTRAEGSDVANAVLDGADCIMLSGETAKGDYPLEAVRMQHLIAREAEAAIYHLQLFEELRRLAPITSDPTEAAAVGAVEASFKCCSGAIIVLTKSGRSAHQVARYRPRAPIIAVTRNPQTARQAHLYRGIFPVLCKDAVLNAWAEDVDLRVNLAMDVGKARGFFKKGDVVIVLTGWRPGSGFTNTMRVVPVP
Sequence of mouse PKM2 (AA 1-531), recombinant, P52480 1-531 (enzyme; other documents disagree on this pair) (P52480 whole entry, the tested form may be a part): as the sequence (P52480 whole entry) above

Row | Substance | stoichiometry N [1] | stoichiometry N [2]
1 | PKM2 (endogenous, RAW264.7 macrophages), P52480 1-531 (enzyme; other documents disagree on this pair) | 4 and 2 | 
2 | mouse PKM2 (AA 1-531), recombinant, P52480 1-531 (enzyme; other documents disagree on this pair) |  | 2 and 4
